Data reported in patent publication US10501552B2, “Multivalent molecules comprising DR5-binding domains” (MacroGenics, Inc., priority 2015, dated 2019).

B1: DR5 mAb 1: anti-human DR5 monoclonal antibody; VL SEQ ID NO:3, VH SEQ ID NO:8 (antibody, listed as Mus musculus, V domains shown)
VH: EVKFLESGGGLVQPGGSLKLSCVASGFDFSRYWMSWVRQAPGKGLEWIGEINPDSNTINYTPSLKDKFIISRDNAKNTLYLQMTKVRSEDTALYYCTRRAYYGNPAWFAYWGQGTLVTVSS
VL: DIVLTQSPASLAVSLGQRATISCRASKSVSSSGYSYMHWYQQKPGQPPKVLIFLSSNLDSGVPARFSGSGSGTDFTLNIHPVEDGDAATYYCQHSRDLPPTFGGGTKLEIK
modifications: (1)..(121) Anti-DR5 Antibody mAb 1 Heavy Chain Variable Region; (1)..(111) Anti-DR5 Antibody mAb 1 Light Chain Variable Region
B2: DR5 mAb 2: murine anti-human DR5 monoclonal antibody; VL SEQ ID NO:13, VH SEQ ID NO:18 (antibody, listed as Mus musculus, V domains shown)
VH: KVQLQQSGAELVKPGASVKLSCKASGYTFTEYILHWVKQKSGQGLEWIGWFYPGNNNIKYNEKFKDKATLTADKSSSTVYMELSRLTSEDSAVYFCARHEQGPGYFDYWGQGTTLTVSS
VL: DIVMTQSHKFMSTSVGDRVSITCKASQDVNTAVAWYQQKPGQSPKLLIYWASTRHTGVPDRFTGSGSGTDYTLTIKSVQAEDLTLYYCQQHYITPWTFGGGTKLEIK
modifications: (1)..(119) Anti-DR5 Antibody mAb 2 Heavy Chain Variable Region; (1)..(107) Anti-DR5 Antibody mAb 2 Light Chain Variable Region

What was measured:
Hs700T = assay: […]-GLO cell viability assay with vorinostat; assay type: cell-based; settings: Hs700T (Pancreas); 1 μg/ml + 1 μM Vorinostat
HT29 = assay: MTS cell proliferation assay; assay type: cell-based; settings: HT29 (Colon); 1 μg/ml, ±10 μg/ml αmFc; two days
Method: (§1) Cell lines obtained from ATCC were cultured under standard tissue culture conditions. Each cell line was plated at ˜2×10^4 cells/well (in 96-well plates), and incubated overnight in F12/DMEM media supplemented with 10% FBS. […] Cell viability was determined using Promega CellTiter 96® AQeous Non-Radioactive Cell Proliferation Assay (Cat # G5430) essentially as described in the manufacturer's instructions to assay the amount of soluble formazan produced by cellular reduction of the MTS, which is a measure of the number of viable cells in the culture. Briefly, MTS/PMS regent was added to the wells and the absorbance at 490 nm (referenced at […]) was read in a Molecular Devices ThermoMax microplate reader.
(§2) Similar studies were performed over a range of anti-DR5 mAb concentrations from ˜10^−3 nM to ˜10^2 nM. The data for COLO205 cells is provided in FIG. 13, and are representative of cell lines sensitive to the antibodies of the invention.
(§3) The cytotoxicity of tetravalent DR5-Binding Molecules of the present invention was investigated. […] His-tagged TRAIL (R&D systems) was used as a positive control.
(§4) Similar studies were performed over a range of anti-DR5 mAb concentrations from ˜10^−3 nM to ˜10^2 nM.

NCI-N87 = assay: MTS cell proliferation assay; assay type: cell-based; settings: NCI-N87 (Stomach); 1 μg/ml, ±10 μg/ml αmFc; two days
Method: as §1, §2, §3, §4

SW948 = assay: MTS cell proliferation assay; assay type: cell-based; settings: SW948 (Colon); 1 μg/ml, ±10 μg/ml αmFc; two days
Method: as §1, §2, §3, §4

MCF7 [1] = assay: MTS cell proliferation assay; assay type: cell-based; settings: MCF7 (Breast); 1 μg/ml, ±10 μg/ml αmFc; two days
Method: as §1, §2, §3, §4

786O = assay: MTS cell proliferation assay; assay type: cell-based; settings: 786O (Kidney); 1 μg/ml, ±10 μg/ml αmFc; two days
Method: as §1, §2, §3, §4

A498 = assay: MTS cell proliferation assay; assay type: cell-based; settings: A498 (Kidney); 1 μg/ml, ±10 μg/ml αmFc; two days
Method: as §1, §2, §3, §4

MDA-MB-175VII [2] = assay: MTS cell proliferation assay; assay type: cell-based; settings: MDA-MB-175VII (Breast); 1 μg/ml, ±10 μg/ml αmFc; two days
Method: as §1, §2, §3, §4

PC3 = assay: MTS cell proliferation assay; assay type: cell-based; settings: PC3 (Prostate); 1 μg/ml, ±10 μg/ml αmFc; two days
Method: as §1, §2, §3, §4

[3] = system: human DR5-Fc fusion protein; assay: competition for binding to immobilized DR5-Fc fusion; settings: for amount of immobilized biotinylated antibody: 1 μg/mL biotinylated DR5 mAb, 1 μg/mL DR5-Fc Fusion coat
Method: In order to determine whether the antibodies bound to different DR5 epitopes, a human DR5-Fc fusion protein was prepared and was coated to an immobilized surface.

SKOV3 = assay: […]-GLO cell viability assay with vorinostat; assay type: cell-based; settings: SKOV3 (Ovary); 1 μg/ml + 1 μM Vorinostat
MCF7 [4] = assay: […]-GLO cell viability assay with vorinostat; assay type: cell-based; settings: MCF7 (Breast); 1 μg/ml + 10 μM Vorinostat
histidine tagged TRAIL = histidine tagged TRAIL (Homo sapiens, UniProt P50591); assay: binding to TRAIL-His coat; settings: 2 μg/mL biotinylated; 1 μg/mL TRAIL-His coat
Method: The amount of immobilized biotinylated antibody was assessed.

MDA-MB-175VII [5] = assay: […]-GLO cell viability assay with vorinostat; assay type: cell-based; settings: MDA-MB-175VII (Breast); 1 μg/ml + 1 μM Vorinostat
22RV1 = assay: […]-GLO cell viability assay with vorinostat; assay type: cell-based; settings: 22RV1 (Prostate); 1 μg/ml + 10 μM Vorinostat

Sequence of human DR5-Fc fusion protein (as listed by the source): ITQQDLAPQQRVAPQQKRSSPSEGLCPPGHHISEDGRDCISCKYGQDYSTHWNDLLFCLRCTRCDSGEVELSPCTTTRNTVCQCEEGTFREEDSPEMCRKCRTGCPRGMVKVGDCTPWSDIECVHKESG
Sequence of histidine tagged TRAIL (P50591 114-281 limits assumed): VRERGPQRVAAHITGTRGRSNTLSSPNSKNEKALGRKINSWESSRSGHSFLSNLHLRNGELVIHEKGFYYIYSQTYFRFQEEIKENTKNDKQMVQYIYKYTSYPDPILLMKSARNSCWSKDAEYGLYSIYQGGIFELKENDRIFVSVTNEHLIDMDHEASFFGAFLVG

Molecule	Net Gain (Average % Growth Inhibition) (Hs700T) [%]	% Inhibition (Average) (HT29) [%]	% Inhibition (Average) (NCI-N87) [%]	% Inhibition (Average) (SW948) [%]	% Inhibition (Average) (MCF7 [1]) [%]	% Inhibition (Average) (786O) [%]	% Inhibition (Average) (A498) [%]	% Inhibition (Average) (MDA-MB-175VII [2]) [%]	% Inhibition (Average) (PC3) [%]	epitope comparison by competition [3]	amount of immobilized biotinylated antibody ([3]; 10 μg/mL competitor DR5 mAb 2)	amount of immobilized biotinylated antibody ([3]; 10 μg/mL competitor mIgG)	Net Gain (Average % Growth Inhibition) (SKOV3) [%]	Net Gain (Average % Growth Inhibition) (MCF7 [4]) [%]	amount of immobilized biotinylated antibody (histidine tagged TRAIL)	Net Gain (Average % Growth Inhibition) (MDA-MB-175VII [5]) [%]	Net Gain (Average % Growth Inhibition) (22RV1) [%]	amount of immobilized biotinylated antibody ([3]; 10 μg/mL competitor DR5 mAb 1)
B1	0.22	0.68	1.6	3.53	2.47	0.91	0.89	1.6	2.79	bind to different epitopes	0.826	2.162	1.75	4.55	0.007	0.95	7.49	
B2	0.22	0.87	0.67	1.76	3.98	1.79	1.92	1.09	2.19	bind to different epitopes		2.102	1.75	5.00	0.008	0.95	7.49	2.377
